Measurements reported in the nanobody polyreactivity screen of Harvey et al. (2022).

Test: yeast display, Sf9 membrane polyspecificity reagent, FACS + sequencing; frameworks hold sequencing errors
How it was run: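 Synthetic nanobody libraries on Saccharomyces cerevisiae BJ5465 were galactose-induced for 36–48 hours, stained 1 hour at 4 °C with 10% biotinylated, detergent-solubilized Sf9 membrane reagent and enriched on streptavidin microbeads. FACS then separated cells into low and high (top ~1%) gates by anti-HA (expression) and streptavidin (reagent binding) fluorescence. Genes were colony-PCR amplified, MiSeq 2 × 250 sequenced and CDR-length filtered. A clone's polyreactivity label is that of its gate of origin.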

Sequence	polyreactivity (PSR sort gate)
QVQLVESGGGLVQAGGSLRLSCASSGSTFDANAMGWYRQAPGKERELVAAITSNGGSTYYADSVKGRFTISRDNAKNTVYLQMNSLKPEDTAVYYCATEQHTVQDYDYWGQGTQVTVSS	low polyreactivity
QVQVVESGGGLVQAGGSLGLSCAASGSTFTRNAMGWYRQAPGKERELVAAITSSGGSTYYADSVKGRFTISRDNAKNTVYLLMNSLKPEDTAVYYCAAYVRPSYFGWMDYWGQGTQVTVSS	low polyreactivity
QVQLVESGGGLVQAGGSLRLSCAASGSTFKKYVMGWYRQAPGKERELVAAISSTGRTNYADSVKGRFTISRDNAKNTVYLQMNSLKPEDTAVYYCAKRYRKYSLGPPGNDYWGQGTQVTVSS	high polyreactivity
QVQLVESGGGLVQAGGSLRLSCAASGRIFVRNAMGWYRQAPGKERELVAGISKRGSRTYYADSVKGRFTISRDNPKNTVYLQMNSLKPEDTAVYYCAVRSYIASYRDARIRFYYWGQGTQVTVSS	high polyreactivity
QVQLVESGGGLVHAGGRLRLSCAASGSTFSPYAMGWYRQPPGKERELVAAITRSGGRTYYADSVKGRFTISRDNAKNTVYLQMNSLKPEDTAVYYCAARNYKPYGYYRIYDSWGQGTQVTVSS	high polyreactivity
QVQLVESAGGLVQAGGSLRLSCAASGFIFVKYVMGWYRQEPGKERELVATISNGVSTNYADSVKGRFTISRDNAKNTVYLQMNSLKPEDTAVYDCNTGSNAWYFSGDYWGQGTQVTVSS	low polyreactivity
QVQLVESGGGLVQAGGSLRLSCAASGSTLNVNAMGWYRQAPGKERELVAAITSGGSTYYADSVKGRFTISRDNEKNTVYLQIHSLKPEDTAVYYCNKRRSWRPTYPIGGSGFYYWGQGTQVTVSS	low polyreactivity
QVQLVESGGGLVQAGGSLRLSCAASGRIFWYYAMGGYRQAPGKERELVASITSGGRTKYADSVKGRFTISRDNAKNTVYLQMNSLKPEDTAVYYCAARLLIDYHADWWVAYDYWGQGTQVTVSS	low polyreactivity
QVQLVESGGGLVQAGGSLRLSCAASGRIFYLYAMGWYRQAPGKERELVATINSGGSTKYADSVKGRFTISRDNAKNTVYLQMNSLKPEDTAVYYCNAKRWKDYYPYQSWKYGYWGQGTQVTVSS	high polyreactivity
QVQLVESAGGLVQAGGSLRLSCAASGSTFQYYAMGWYRLAPGKDRELVATITLIAGSTYADSVKGRFTISRDNAKNTVYLQMNSLNPEDTEVYYCAADDGGYETPELLYGGRGDDWGQGTQVTVSS	low polyreactivity
QVQLVESGGGLVQAGGSLRLSCAASGRLFSRNVMGWSRQAPGKERELVAAISSSGSTYADSVKGRFTISRDNEKNTVYLQMNSLKPEDTAVSYCAAVIYLWGQGTQVTVSS	high polyreactivity
QVQLVESGGGLVQAGARLRLSCAASGSILPTNAMGWYRQAPGKERELVASITYNGGRTSYADSVKWRFTISRDNAKNTVYLQMNSLKPEDTAVYYCAARVWYQGYKSMGYWGQGTQVPVSS	high polyreactivity
QVQLVESGGGLVQAGGSLRLSCAASGRTFFRYARGGYRQAPGKERELVAAISVSGASTNYADSVKGRFTISRDNAKNTGYLQMNSQKPEDTAVYYCAARVADYDGVPLYRHGDYWGPGTQVTVSS	low polyreactivity
QVQLVESGGRLVQAGGSLRLSGAASGRTFAKYAMGWYRQAPGKERELVAAINSSGDSTYYADSVKGRFTISRDNAKNTVYLQMNSLKPEDTAVYYCATRYRSSQWYSPYKYDYWGQGTQVTVSS	low polyreactivity
QVQLVESGGGLVQAGGSLRLSCAASGTTYYNAMGWYRQAPGKERELVAAIRFRSGSTYYADSVKGRFTISRDNAKNTVFLQMNSLKPEDTAVYYCNIVPYRGYRRYGYWGQGTHVTVSS	high polyreactivity
QVQLVESGGGLVQAGGSLRLSCAASGFTFRYNAMGWYRQAPGKERELVAAISWSGGSTYYADSVKGRFTISRDNAKNTVYLQMNSLKPEDTAVYYCNRAYGYSFSLNRYDYWGQGTQVTVSS	low polyreactivity
QVQLVDSGGGLVQAGGRLRLSCAASGRTFRTNAMGWYRQAPGKERELVAAISRTGRTNYADSVKGRFTISRDNAKNTVYLQMNSLKPEDTAVYYCAADRVGWSGYRGDYWGQGTQVTVSS	high polyreactivity
QVQLVESGGGLVQAGGSLRLSCAASGRIFVPYTMGWYRQAPGKERELVAAISRSGGSTYYADSVKGRFTISRDNAKNTVYLQMNSLKPEDTAVYYCAARATNVYSKMDYWGQGTQVTVSS	high polyreactivity
QVQLVESGGGLVQAGGSLRLSCAASGSTFGGYAMGRYRQAPGKERELVAAISQSGTRTYYADSVKGRFTISRDNAKYTVYLQMNSLKPEDTAVYYCAARRLYYHPTLYYWGQGTQVTVSS	high polyreactivity
QVQLVESGGGLVQAGGSLRLSCAASGSTFTSNAMGWYRQAPGKERELVASISWSGGRTYYADSVKGRFTISRDNAKNTVYLQMNSLKPEDTAVYYCAAASYQSRYWNYYWGQGTQVTVSS	high polyreactivity
QVQLVESGVGLVQAGGSIRLSCAASGRTFRYYTMGWYRQAPGKEREFVAAISSTGGTYYADSVKGRFTISRDNAKNTVYLQMNSLKPEDTAVYYCAATFIQVVVNVQLYDYDYWGQGTQVSVSS	low polyreactivity
